Experimental findings from patent US20190367631A1 (Regeneron, published 2019) are described below.

As usually defined, the Kd is the concentration at which binding is half-saturated. As usually defined, the koff is the first-order rate constant of dissociation. A word on the kon: it is the second-order rate constant of association. What is called t½ is how long it takes for the measured level to halve.

Some results are limits rather than exact numbers.

In experiment [1] the target is T1, monkey MSR1 extracellular domain expressed with a N-terminal hexahistidine-myc-myc tag (HMM-mfMSR1) (monkey (Macaca fascicularis)).
T1 chain: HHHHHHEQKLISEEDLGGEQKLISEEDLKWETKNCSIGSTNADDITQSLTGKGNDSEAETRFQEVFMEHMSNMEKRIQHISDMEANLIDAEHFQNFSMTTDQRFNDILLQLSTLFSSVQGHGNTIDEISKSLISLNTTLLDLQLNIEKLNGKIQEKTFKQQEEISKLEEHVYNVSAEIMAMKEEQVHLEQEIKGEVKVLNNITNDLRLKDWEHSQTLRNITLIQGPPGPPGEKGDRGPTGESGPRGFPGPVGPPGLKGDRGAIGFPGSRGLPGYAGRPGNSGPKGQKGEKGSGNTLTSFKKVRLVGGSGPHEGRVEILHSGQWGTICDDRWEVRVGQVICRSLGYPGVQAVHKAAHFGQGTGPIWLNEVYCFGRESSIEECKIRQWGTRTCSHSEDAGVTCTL
Nature of the experiment: SPR Biacore, 25 C, antibody captured.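 Further: rates from 1:1 fit with mass transport limitation of real-time sensorgrams, HEPES-buffered saline with EDTA and Tween-20 at pH 7.4, KD and t½ derived from the kinetic rates.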 On the technique in general: SPR reads the build-up and loss of mass on a sensor chip optically.

Experiment [2] deals with T2, human MSR1 extracellular domain expressed with a N-terminal nonahistidine tag (His9-hMSR1); R&D Systems, Cat … (human, UniProt P21757 77-451).
T2 construct: extracellular domain; also called His-hMSR1; 9xHis-hMSR1; not shown: N-terminal nonahistidine tag
T2 sequence (looked up): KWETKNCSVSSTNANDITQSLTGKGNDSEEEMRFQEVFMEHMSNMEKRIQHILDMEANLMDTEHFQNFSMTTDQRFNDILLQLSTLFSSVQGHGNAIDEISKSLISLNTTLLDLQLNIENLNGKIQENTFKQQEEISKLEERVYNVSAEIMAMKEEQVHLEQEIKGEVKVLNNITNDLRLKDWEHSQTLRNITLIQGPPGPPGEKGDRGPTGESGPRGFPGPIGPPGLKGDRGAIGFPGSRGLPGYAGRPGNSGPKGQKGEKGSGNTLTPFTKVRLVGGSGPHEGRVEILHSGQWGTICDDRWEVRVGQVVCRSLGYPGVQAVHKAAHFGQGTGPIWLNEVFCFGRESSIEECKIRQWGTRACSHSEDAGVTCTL
As to the kind of experiment: SPR Biacore, 25 C, antibody captured.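 Further: rates from 1:1 fit with mass transport limitation of real-time sensorgrams, HEPES-buffered saline with EDTA and Tween-20 at pH 7.4, KD and t½ derived from the kinetic rates.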

In experiment [3] the target is T3, mouse MSR1 extracellular domain expressed with a N-terminal nonahistidine tag (His9-mMSR1); R&D Systems, Cat … (mouse, UniProt P30204 79-458).
T3 construct: extracellular domain; not shown: N-terminal nonahistidine tag
T3 sequence (looked up): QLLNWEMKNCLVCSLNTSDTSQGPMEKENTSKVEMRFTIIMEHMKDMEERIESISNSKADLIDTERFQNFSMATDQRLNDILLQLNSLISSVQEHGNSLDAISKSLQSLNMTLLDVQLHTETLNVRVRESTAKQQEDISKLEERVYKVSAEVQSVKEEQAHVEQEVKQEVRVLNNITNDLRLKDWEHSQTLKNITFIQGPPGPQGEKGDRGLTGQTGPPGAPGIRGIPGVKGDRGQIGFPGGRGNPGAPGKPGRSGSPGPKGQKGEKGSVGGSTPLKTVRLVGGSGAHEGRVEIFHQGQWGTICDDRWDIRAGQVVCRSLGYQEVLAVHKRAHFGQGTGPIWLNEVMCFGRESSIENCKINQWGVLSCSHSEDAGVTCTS
Nature of the experiment: BLI Octet, 25 C, antibody captured. (In general: Biolayer interferometry detects binding as a change in optical thickness at a sensor tip.)

The target of experiment [4] is T1, monkey MSR1 extracellular domain …. As to the kind of experiment: SPR Biacore, 37 C, antibody captured.
Method: (§1) Binding affinities and kinetic constants of human anti-MSR1 antibodies for different MSR1 reagents were determined by real-time surface plasmon resonance (Biacore 4000). All binding studies were performed in 10 mM HEPES, 150 mM NaCl, 3 mM EDTA, and 0.05% v/v Surfactant Tween-20, pH 7.4 (HBS-ET) running buffer at 25° C. and 37° C.
(§2) The association rate (kₐ) and dissociation rate (kd) were determined by fitting the real-time binding sensorgrams to a 1:1 binding model with mass transport limitation using Scrubber 2.0c curve-fitting software. Binding dissociation equilibrium constant (KD) and dissociative half-life (t½) were calculated from the kinetic rates as:
The target in experiment [5] is T4, human MSR1 extracellular domain expressed with a N-terminal nonahistidine tag (His9-hMSR1); R&D Systems, Cat … (human, UniProt P21757 77-451).
T4 construct: extracellular domain; Bought reagent; also called His-hMSR1; 9xHis-hMSR1
T4 sequence: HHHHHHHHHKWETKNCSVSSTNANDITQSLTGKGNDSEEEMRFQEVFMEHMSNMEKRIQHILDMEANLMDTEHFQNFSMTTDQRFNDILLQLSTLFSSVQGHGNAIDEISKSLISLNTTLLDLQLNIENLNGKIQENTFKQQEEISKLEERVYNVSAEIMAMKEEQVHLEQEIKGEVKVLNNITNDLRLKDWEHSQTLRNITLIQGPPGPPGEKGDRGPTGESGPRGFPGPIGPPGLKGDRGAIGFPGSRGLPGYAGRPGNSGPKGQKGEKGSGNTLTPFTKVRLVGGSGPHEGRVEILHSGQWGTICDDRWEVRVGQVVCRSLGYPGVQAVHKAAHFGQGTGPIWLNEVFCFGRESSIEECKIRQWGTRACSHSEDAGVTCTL
Nature of the experiment: SPR Biacore T200, 25 C, antibody captured by anti-human Fc, His9-hMSR1 injected.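 Further: running buffer HBS-ET pH 7.4, rates from sensorgrams fitted to a 1:1 model including mass transport limitation, KD and half-life derived from the kinetic constants.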

The target in experiment [6] is T4, human MSR1 extracellular domain …. As to the kind of experiment: SPR Biacore T200, 25 C, antibody captured by anti-human Fc, His9-hMSR1 injected; no dissociation seen, kd fixed at 1.00E-05.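 Further: running buffer HBS-ET pH 7.4, rates from sensorgrams fitted to a 1:1 model including mass transport limitation, KD and half-life derived from the kinetic constants.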
Method: All binding studies were performed in 10 mM HEPES, 300 mM NaCl, 3 mM EDTA, and 0.05% v/v Surfactant Tween-20, pH 7.4 (HBS-ET) running buffer at 25° C.
as §2
The target in experiment [7] is T2, human MSR1 extracellular domain …. As to the kind of experiment: SPR Biacore, 37 C, antibody captured.
Method: as §1, §2

B1: H1H27751P-N297Q (antibody, V domains shown)
VH: EVQLVESGGGLVQPGGSLRLSCAASGFTFSNYAMHWVRQAPGKGLEYVSAISSNGGSTYYADSVKGRITISRDNSKNTLYLQMGSLRAEDMAVYYCARGRPYYYYFGMDVWGQGTTVTVSS
VL: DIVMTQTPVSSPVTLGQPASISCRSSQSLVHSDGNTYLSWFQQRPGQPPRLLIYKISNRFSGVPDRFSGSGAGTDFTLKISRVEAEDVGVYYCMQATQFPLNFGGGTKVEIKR
notes: Human IgG1 Fc with N297Q point mutation
In experiment [1], B1 registered a Kd of 1.01 nM, an off-rate constant (koff) of 0.000749 s⁻¹, a kon of 744000 M⁻¹ s⁻¹ and a t½ of 15 min. In experiment [2], this molecule gave a Kd of 0.172 nM, a dissociation rate constant (koff) of 0.000305 s⁻¹, a kon of 1.78e+06 M⁻¹ s⁻¹ and a t½ of 38 min. In addition, in experiment [3], the binding result is on record as “no binding (tested: 50 nM)”. In experiment [4], this molecule gave a Kd of 1.55 nM, a koff of 0.0018 s⁻¹, a kon of 1.17e+06 M⁻¹ s⁻¹ and a t½ of 6 min.

B2: H2aM25690N (antibody, V domains shown)
VH: EVQLLESGGGLVQPGGSLRLSCAASGFTFSNYAMTWVRQAPGTGLEWVSAISGRGSNTYYTDSVKGRFTISRDNSKNMLYLQMNSLRAEDTASYYCAKDRFTTVGNWFDPWGQGTLVTVSS
VL: DIQMTQSPSSLSASVGDRVTITCRASQSISSYLNWYQQKPGKAPKLLIYAASSLQNGVPSRFSGSGSGTDFTLTISSLQPEDFATYYCQQSYSSLPITFGQGTRLDIKR
notes: Human variable domains with mouse IgG2a Fc; tied by the numerical identifier
Turning to B2, in experiment [3], the binding result is “no binding (tested: 100 nM)”.

B3: H2aM25685N (antibody, V domains shown)
VH: QVQLVQSGAEVREPGASVKLSCKVSGYTLTELSIHWVRQAPGKGLEWMGGFDPEEGETVYAQKFRGRVTLTEDISPDTAYMELSSLTSEDTAVYYCATPRYCNNGICYDYWGQGTLITVSS
VL: not shown
notes: as for B2
As to B3, in experiment [3], the binding result was “no binding (tested: 100 nM)”.

B4: H1H27766P-N297Q (antibody, human IgG1, V domains shown)
VH: EVQLVESGGGLVQPGGSLRLSCAASGFTFSSFAMSWVRQAPGKELEWVSSISGRGGSTYYADSVRGRFTISRDNSKITLYLQMNSLRAEDTAVYYCAKDIVFRYTSSAYWYFDLWGRGTLVTVSS
VL: not shown
notes: human IgG1 Fc with N297Q (EU); also called H1H27766P2-N297Q
B4: in experiment [5], the kon was determined as 172000 M⁻¹ s⁻¹. For the same molecule, in experiment [6], the dissociation constant (Kd) is ≤ 0.0583 nM, the off-rate (koff) was ≤ 1e-05 s⁻¹ and the t½ was ≥ 1160 min.

B5: H2aM21232N (antibody, V domains shown)
VH: QVQLQESGPGLVKPSETLSLTCTVSGGSISSYYWSWIRQPPGKGLEWIGYIYYSGSANYNPSLKSRVTISVDTSKNQFSLKLSSVTAADTAVYYCVRDRDLLLDHWGQGTLVTVSS
VL: not shown
notes: Human variable domains with mouse IgG2a Fc
As for B5, the binding result in experiment [3] was “no binding (tested: 100 nM)”.

B6: H1H21234N-N297Q-LP1 (antibody, human IgG1, V domains shown)
VH: QVQLQESGPGLVKPSETLSLTCTVTGGSISRNYWSWIRQPPGKGLEWIGYIYYSGSIDYNPSLKSRVTISVDTSKNQFSLKLSSMTAADTAVYYCARDRWNWKYGMDVWGQGTTVIVSS
VL: EIVLTQSPGTLSLSPGERATLSCRASQTVRNNYLAWYHQKPGQAPRLLIYGASSRATGIPDRFSGSGSGTDFTLTISRLEPEDFTVYYCHQYGNSPWTFGQGTKMEIKR
modifications: LXR agonist linker-payload LP1 clicked to azido-PEG3-amine on Q295 and Q297 (EU) of the heavy chain constant region
notes: antibody-drug conjugate; human IgG1 Fc with N297Q (EU); also called H1H21234N-LP1
The molecule B6 returned a kon in experiment [5] of 490000 M⁻¹ s⁻¹. Moreover, in experiment [6], the Kd was ≤ 0.0204 nM, the koff is ≤ 1e-05 s⁻¹ and the t½ is ≥ 1160 min.

B7: H1H27729P-N297Q (antibody, V domains shown)
VH: QVQLVESGGGLVKPGGSLRLSCAASGFIFSDYYMSWIRQAPGKGLEWVSYISSSGTTIYGDSVKGRFTMSRDNAKNSLYLQMNSLRAEDTAVYYCARNYALFDYWGQGTLVTVSS
VL: DIQMTQSPSSLSASVGDRVTITCQASQDISKYLNWYQQKPGKAPKLLIYYTSNLETGVPSRFSGSGSGTDFTFTISSLQPEDIATYYCHQSDYLPFTFGPGTKVDIKR
notes: as for B1
In experiment [1], B7 registered a dissociation constant Kd of 7.9 nM, a dissociation rate constant (koff) of 0.00212 s⁻¹, an on-rate (kon) of 269000 M⁻¹ s⁻¹ and a t½ of 5 min. Also, in experiment [2], the Kd was 5.45 nM, the koff was determined as 0.00107 s⁻¹, the on-rate (kon) stood at 197000 M⁻¹ s⁻¹ and the t½ was 11 min. For the same molecule, the binding result in experiment [3] is reported as “no binding (tested: 50 nM)”. In experiment [4], this molecule came in with a Kd of 8.58 nM, an off-rate constant (koff) of 0.00349 s⁻¹, a kon of 407000 M⁻¹ s⁻¹ and a t½ of 3.3 min. In experiment [7], this molecule registered a dissociation constant (Kd) of 8.53 nM, a koff of 0.00204 s⁻¹, a kon of 239000 M⁻¹ s⁻¹ and a t½ of 6 min.

B8: H1H27731P-N297Q (antibody, V domains shown)
VH: QLQLQESGPGLVKPSETLSLTCTVSGGSISRISYYWGWIRQPPGKGLEWIGSIYDSGSTYYNPSLKSRVTISIDTSKNQFSLKLSSVTAADTAVYYCVRYSSSSAFAFDYWGQGTLVTVSS
VL: DIQMTQSPSSVSASVGDRVTITCRASQGISSWLAWYQQKPGKAPKLLIYAASSLQSGVPSRFSGSGSGTDFTLTISSLQPEDFATYYCQQANSFPFTFGPGTKVDIKR
notes: as for B1
Regarding B8, in experiment [1], binding was put at a Kd of 0.477 nM, the koff turned out to be 4.69e-05 s⁻¹, the kon was 98200 M⁻¹ s⁻¹ and the t½ was determined as 247 min. In experiment [2], binding was characterised by a dissociation constant (Kd) of 0.174 nM, the koff was found to be 2.24e-05 s⁻¹, the kon worked out at 129000 M⁻¹ s⁻¹ and the t½ was 515 min. Moreover, the binding result in experiment [3] is “no binding (tested: 50 nM)”. Also, in experiment [4], the Kd was 0.674 nM, the koff is 0.000187 s⁻¹, the kon stood at 278000 M⁻¹ s⁻¹ and the t½ was 62 min. In experiment [7], this molecule had a Kd of 0.462 nM, a koff of 0.000132 s⁻¹, an association rate constant (kon) of 286000 M⁻¹ s⁻¹ and a t½ of 88 min.

B9: H1H27747P-N297Q (antibody, V domains shown)
VH: QVQLVESGGAVVQPGRSLRLSCAASGFTFSYYGMHWVRQAPGKGLEWVAVISYDGSKKYYADSVKGRFTISRDNSKNTLYLQMNSLRAEDTAVYYCAKDLTVDFYYGMDVWGQGTTVTVSS
VL: DIQMTQSPSSVSASVGDRVTITCRASQGISSWLAWYQQKPGKAPKLLIYATSSLQSGAPSRFSGSGSGTDFTLTISSLQPEDFATYFCQQANSFPYTFGQGTKLEIKR
notes: as for B1
In experiment [1], B9 registered a dissociation constant Kd of 3.78 nM, a dissociation rate constant (koff) of 0.000874 s⁻¹, an association rate constant (kon) of 231000 M⁻¹ s⁻¹ and a t½ of 13 min. The binding result in experiment [3] is recorded as “no binding (tested: 50 nM)”. In experiment [4], this molecule registered a dissociation constant Kd of 3.47 nM, a koff of 0.00228 s⁻¹, a kon of 657000 M⁻¹ s⁻¹ and a t½ of 5 min. In experiment [7], this molecule showed a Kd of 5.37 nM, a koff of 0.00276 s⁻¹, an on-rate (kon) of 513000 M⁻¹ s⁻¹ and a t½ of 4 min.
